Reference: patent publication US20210155687A1 (published 2021)

Key:
[1] = target: T1, Human OSM (human); experiment: in vivo affinity in serum, estimated with a TMDD model (one-compartment PK plus binding kinetics) from free and total OSM levels in the single ascending dose FTIH study
T1 chain: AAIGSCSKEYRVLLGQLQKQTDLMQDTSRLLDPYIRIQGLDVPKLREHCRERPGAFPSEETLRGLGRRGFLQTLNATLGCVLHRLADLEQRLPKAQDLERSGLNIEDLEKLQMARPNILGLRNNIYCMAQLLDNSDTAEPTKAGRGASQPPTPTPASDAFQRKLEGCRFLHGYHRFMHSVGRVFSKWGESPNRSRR

[2] = target: T1, Human OSM; experiment: in vivo affinity estimated from FTIH PK/PD data (rounded restatement of the TMDD estimate)

Kd [1]: 0.568 nM
Kd [2]: ~0.6 nM
B1: mab 1 (antibody)
heavy: SYAMS
light: EVQLVESGGGLVQPGGSLRLSCAASGFTFSSYAMSWVRQAPGKGLEWVATISDGGSFTYYLDNVRGRFTISRDNAKNSLYLQMNSLRAEDTAVYYCARDVGHTTFWYFDVWGRGTLVTVSS
notes: Humanised anti-OSM antibody derived from murine 10G8; also called humanised mab 1 derived from 10G8; Mature H0 (IGHV3_23 CDRH1) heavy chain with Mature L1 light chain
